The supplement of paper PMC10567573

B1: CDC25B (parent)
chain: ELKTFRLKTRSWAGERSRRELCSR

Variants of: B1
Assay: protein stability index of a GFP-peptide fusion (GPS, HEK-293T) (PSI 1-6); higher = more stable
Details: c terminus: a fixed tail appended
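Also: lentivirally expressed fusions sorted by FACS into six bins by GFP to DsRed ratio, PSI derived from sequencing read proportions per bin multiplied by bin number.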

Protein stability index, by site and new letter:
R10: P 3.13 | S 3.5 | G 2.44 | T 2.37 | I 2.8 | K 3.66 | A 3.15 | F 2.54 | D 3.62 | C 2.94 | V 2.45 | E 2.66 | Y 3.19 | M 2.92 | L 3.38 | W 2.41 | H 3.04 | Q 3.1 | N 3.13
L2: Q 4.5 | E 4.97 | S 4.12 | G 3.75 | K 3.53 | T 3.72 | P 3.89 | I 3.17 | C 4.24 | V 3.44 | H 3.74 | W 2.83 | D 3.81 | Y 3.78 | F 2.54 | M 3.87 | N 4.04 | R 3.67 | A 4.42
K8: T 3.65 | M 2.8 | I 1.92 | V 2.68 | F 2.28 | G 2.4 | R 5.09 | C 2.73 | A 2.88 | P 2.77 | W 2.1 | D 3.41 | H 3.07 | E 3.2 | L 3.2 | Q 3.34 | Y 2.71 | N 2.99 | S 3.55
T4: H 3.27 | S 3.6 | F 2.79 | A 3.47 | Q 3.18 | D 4.42 | R 2.52 | N 2.09 | K 2.61 | G 2.9 | M 2.96 | E 3.16 | L 2.85 | C 2.56 | P 3.41 | V 3.27 | I 2.26 | Y 3.27
K3: F 1.61 | N 3.38 | T 3.2 | R 3.6 | I 1.89 | A 2.92 | Y 2.91 | G 3.71 | W 2.44 | H 3.63 | P 3.42 | L 2.14 | E 3.29 | Q 3.25 | D 3.33 | S 3.62 | V 2.67 | C 2.78 | M 3.02
G14: H 2.65 | E 3.16 | A 2.42 | I 2.67 | C 2.5 | F 3.15 | D 3.62
W12: Y 3.66 | H 3.64 | P 3.55 | G 3.54 | Q 3.49 | N 3.45 | E 4.2 | I 3.3 | F 3.34 | L 3.41 | V 3.45 | D 4.12 | A 3.16 | C 2.87 | R 4.08 | M 2.43 | S 3.54 | K 3.94 | T 3.38
L7: G 4.12 | R 4.57 | Q 3.75 | V 3.33 | E 4.07 | C 3.98 | M 3.81 | S 3.91 | T 4.08 | K 4.68 | N 3.57 | H 3.6 | I 3.25 | A 3.75 | Y 3.29 | W 2.99 | D 3.86 | P 3.99
F5: C 3.09 | P 4.43 | I 3.59 | T 3.82 | H 3.92 | N 3.63 | Y 3.94 | S 3.94 | E 2.5 | V 3.96 | R 3.78 | A 4.09 | D 4.08 | G 3.69 | M 3.6 | L 3.65 | K 4.24 | W 2.87 | Q 3.67
T9: N 3.66 | G 4 | M 2.3 | R 4.65 | Y 3.16 | L 2.09 | A 3.66 | H 3.29 | P 3.14 | K 3.84
